{
  "source": "patent US7494647",
  "about": "(Chugai, dated 2009)",
  "binders": {"B1": {"name": "H chain humanized version b/L chain chimeric antibody (antibody, IgG4, V domains shown)", "VH": "QVQLLESGAVLARPGTSVKISCKASGFNIKDYYMHWVKQRPGQGLEWIGGNDPANGHSMYDPKFQGRVTITADTSTNTAYMELSSLRSEDTAIYYCARDSGYAMDYWGQGTLVTVSS", "VL": "DIKMTQSPSSMYASLGERVTITCKASQDIKSFLSWYQQKPWKSPKTLIYYATSLADGVPSRFSGSGSGQDYSLTINNLESDDTATYYCLQHGESPYTFGGGTKLEIK", "notes": "L chain V region is that of mouse ATR-5; also called b-ch"}, "B2": {"name": "H chain humanized version d/L chain chimeric antibody (antibody, IgG4, V domains shown)", "VH": "QVQLLESGAVLARPGTSVKISCKASGFNIKDYYMHWVKQRPGQGLEWIGGNDPANGHSMYDPKFQGRVTITADESTSTAYMELSSLRSEDSAVYFCARDSGYAMDYWGQGTLVTVSS", "VL": "DIKMTQSPSSMYASLGERVTITCKASQDIKSFLSWYQQKPWKSPKTLIYYATSLADGVPSRFSGSGSGQDYSLTINNLESDDTATYYCLQHGESPYTFGGGTKLEIK", "notes": "L chain V region is that of mouse ATR-5; also called d-ch"}, "B3": {"name": "H chain humanized version e/L chain chimeric antibody (antibody, IgG4, V domains shown)", "VH": "QVQLLESGAVLARPGTSVKISCKASGFNIKDYYMHWVKQRPGQGLEWIGGNDPANGHSMYDPKFQGRVSITADESTKIAYMELNSLRSEDTAVYFCARDSGYAMDYWGQGTLVTVSS", "VL": "DIKMTQSPSSMYASLGERVTITCKASQDIKSFLSWYQQKPWKSPKTLIYYATSLADGVPSRFSGSGSGQDYSLTINNLESDDTATYYCLQHGESPYTFGGGTKLEIK", "notes": "L chain V region is that of mouse ATR-5; also called e-ch"}, "B4": {"name": "H chain humanized version j/L chain chimeric antibody (antibody, IgG4, V domains shown)", "VH": "QVQLLESGAVLARPGTSVKISCKASGFNIKDYYMHWVKQRPGQGLEWIGGNDPANGHSMYDPKFQGRVTFTADTSANTAYMELRSLRSADTAVYYCARDSGYAMDYWGQGTLVTVSS", "VL": "DIKMTQSPSSMYASLGERVTITCKASQDIKSFLSWYQQKPWKSPKTLIYYATSLADGVPSRFSGSGSGQDYSLTINNLESDDTATYYCLQHGESPYTFGGGTKLEIK", "notes": "L chain V region is that of mouse ATR-5; also called j-ch"}, "B5": {"name": "H chain humanized version c/L chain chimeric antibody (antibody, IgG4, V domains shown)", "VH": "QVQLLESGAVLARPGTSVKISCKASGFNIKDYYMHWVKQRPGQGLEWIGGNDPANGHSMYDPKFQGRVTMLVDTSKNQFSLRLSSVTAADTAVYYCARDSGYAMDYWGQGTLVTVSS", "VL": "DIKMTQSPSSMYASLGERVTITCKASQDIKSFLSWYQQKPWKSPKTLIYYATSLADGVPSRFSGSGSGQDYSLTINNLESDDTATYYCLQHGESPYTFGGGTKLEIK", "notes": "L chain V region is that of mouse ATR-5; also called c-ch"}, "B6": {"name": "H chain chimeric/L chain humanized version b1 antibody (antibody, IgG4, V domains shown)", "VH": "EVQLQQSGTNLVRPGALVKLSCKGSGFNIKDYYMHWVKQRPEQGLEWIGGNDPANGHSMYDPKFQGKASITADTSSNTAYLQLSSLTSEDTAVYFCARDSGYAMDYWGQGTSVTVSS", "VL": "DIQMTQSPSSLSASVGDRVTITCKASQDIKSFLSWFQQKPGKSPKTLIYYATSLADGVPSRFSGSGSGTDYTLTISSLQPEDFATYYCLQHGESPYTFGGGTKVEIK", "notes": "H chain V region is that of mouse ATR-5; also called ch-b1"}, "B7": {"name": "H chain chimeric/L chain humanized version b2 antibody (antibody, IgG4, V domains shown)", "VH": "EVQLQQSGTNLVRPGALVKLSCKGSGFNIKDYYMHWVKQRPEQGLEWIGGNDPANGHSMYDPKFQGKASITADTSSNTAYLQLSSLTSEDTAVYFCARDSGYAMDYWGQGTSVTVSS", "VL": "DIQMTQSPSSLSASVGDRVTITCKASQDIKSFLSWYQQKPEKAPKSLIYYATSLADGVPSRFSGSGSGTDYTLTISSLQPEDFATYYCLQHGESPYTFGGGTKVEIK", "notes": "H chain V region is that of mouse ATR-5; also called ch-b2"}, "B8": {"name": "H chain chimeric/L chain humanized version b antibody (antibody, IgG4, V domains shown)", "VH": "EVQLQQSGTNLVRPGALVKLSCKGSGFNIKDYYMHWVKQRPEQGLEWIGGNDPANGHSMYDPKFQGKASITADTSSNTAYLQLSSLTSEDTAVYFCARDSGYAMDYWGQGTSVTVSS", "VL": "DIQMTQSPSSLSASVGDRVTITCKASQDIKSFLSWYQQKPGKAPKLLIYYATSLADGVPSRFSGSGSGTDYTLTISSLQPEDFATYYCLQHGESPYTFGGGTKVEIK", "notes": "H chain V region is that of mouse ATR-5; also called ch-b"}},
  "data": [
    {"molecular_target": "T1, human tissue factor (TF) on human bladder carcinoma cells J82 (human, UniProt P13726 33-295)", "T1 construct": "whole, on cells; also called the antigen; J82 cells", "T1 sequence (P13726 33-295)": "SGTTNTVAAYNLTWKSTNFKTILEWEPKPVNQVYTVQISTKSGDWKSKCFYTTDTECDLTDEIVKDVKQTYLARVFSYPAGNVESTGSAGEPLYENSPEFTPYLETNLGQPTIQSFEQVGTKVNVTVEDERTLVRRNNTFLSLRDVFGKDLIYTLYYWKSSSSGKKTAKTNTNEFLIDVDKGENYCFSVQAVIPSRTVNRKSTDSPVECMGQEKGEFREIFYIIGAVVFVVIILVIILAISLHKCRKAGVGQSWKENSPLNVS", "assay": "cell ELISA on paraformaldehyde-fixed J82 cells; AP-conjugated goat anti-human IgGγ; absorbance 405/655 nm", "description": "(§1) Cell ELISA plates for measurement of antigen binding were prepared as follows. Cells used were human bladder carcinoma cells J82 (ATCC HTB-1). To 60 wells of a 96-well cell culture plate, 1 ×10^5 J82 cells were inoculated. This was cultured (RPMI1640 medium containing 10% fetal bovine serum (GIBCO)) for one day in a CO_2 incubator to allow the cells to be attached thereto. After discarding the culture liquid, each well was washed twice with 300 μl PBS. 100 μl of PBS containing 4% paraformaldehyde (hereinafter referred to as PFA/PBS) was added to each well, and placed on ice for 10 minutes to immobilize the cells.\n(§2) PFA/PBS was discarded, and each well was washed twice with 300 μl of PBS, and then blocked with 250 μl of DB. The culture supernatant or purified antibody was serially diluted with DB, 100 μl of which was added to each well. After incubating at room temperature for 2 hours followed by washing with RB, 100 μl of alkaline phosphatase-conjugated goat anti-human IgGγ antibody (BioSource) diluted 1000-fold with DB was added. After incubating for 1 hour followed by washing with RB, the substrate solution was added, and then absorbance at 405/655 nm was measured using the Microplate Reader (Bio-Rad).", "units": {"EC50 (read off the curve)": "µg/mL"}, "values": [
      {"binder": "B1", "EC50 (read off the curve)": "~0.1"},
      {"binder": "B2", "EC50 (read off the curve)": "~0.07"},
      {"binder": "B3", "EC50 (read off the curve)": "~0.05"},
      {"binder": "B4", "binding result": "binds"},
      {"binder": "B5", "EC50 (read off the curve)": "~0.09"},
      {"binder": "B6", "binding result": "binds"},
      {"binder": "B7", "binding result": "binds"}
    ]},
    {"molecular_target": "T1, human tissue factor (TF) on human …", "assay": "cell ELISA on paraformaldehyde-fixed J82 cells; AP-conjugated goat anti-human IgGγ; absorbance 405/655 nm", "remark": "another data set of the same source", "description": "as §1, §2", "units": {"EC50 (read off the curve)": "µg/mL"}, "values": [
      {"binder": "B8", "EC50 (read off the curve)": "~0.08"}
    ]}
  ]
}
